Data as given in article PMC2777438.
Read-outs that look alike come from different tables or passages of the source.

T1: Δ14ArtA (Staphylococcus aureus plasmid pSK41, UniProt Q52270 15-62, del1-14)
T1 chain: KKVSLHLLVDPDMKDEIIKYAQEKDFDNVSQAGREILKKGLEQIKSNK

T2: ArtA (Staphylococcus aureus plasmid pSK41, UniProt Q52270 1-62)
T2 sequence: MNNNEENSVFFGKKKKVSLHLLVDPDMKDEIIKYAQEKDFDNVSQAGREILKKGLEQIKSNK


How the values were obtained:
Δ14ArtA = biological target: T1, Δ14ArtA; assay: fluorescence polarization
ArtA [1] = biological target: T2, ArtA; assay: fluorescence polarization
ArtA [2] = biological target: T2, ArtA; assay: crystal structure
ArtA [3] = biological target: T2, ArtA; assay: fluorescence polarization; remark: listed apart in the source
ArtA [4] = biological target: T2, ArtA; assay: fluorescence polarization; remark: listed apart in the source
ArtA [5] = biological target: T2, ArtA; assay: fluorescence polarization; remark: listed apart in the source
ArtA [6] = biological target: T2, ArtA; assay: fluorescence polarization; remark: listed apart in the source

| Binder | Kd (Δ14ArtA) | Kd (ArtA [1]) | binding result (Δ14ArtA) | other results |
| --- | --- | --- | --- | --- |
| 11-mer consensus (dsDNA) DNA 1: ACATGACATGT DNA 2: ACATGTCATGT | 222 ± 8 nM | 127 nM |  |  |
| PartA operator (dsDNA) DNA 1: TTGTCATGACATGTCATGTGTAA DNA 2: TTACACATGACATGTCATGACAA | 41 ± 9 nM | 28 ± 8 nM |  |  |
| Porf538 Mutant 2 (dsDNA) DNA 1: ACACGACATGAAATTAAACGT DNA 2: ACGTTTAATTTCATGTCGTGT |  |  | no binding | binding result (ArtA [1]): no binding |
| 12-mer consensus (crystal) (dsDNA, 5-bromouracil at thymines (MAD DNA only)) DNA 1: GACATGACATGT DNA 2: CACATGTCATGT |  |  |  | binding result (ArtA [2]): binds |
| Porf538 Mutant 1 (dsDNA) DNA 1: ACACTAAATGAAATGACACGT DNA 2: ACGTGTCATTTCATTTAGTGT |  |  | no binding | binding result (ArtA [1]): no binding |
| PtraA operator (dsDNA) DNA 1: TTACATGACATGACATGTAATAC DNA 2: GTATTACATGTCATGTCATGTAA | 52 ± 6 nM | 42 ± 9 nM |  |  |
| 22-mer operator (dsDNA) DNA 1: CAAACATGATATGACATGTAAT DNA 2: ATTACATGTCATATCATGTTTG | 58 ± 5 nM | 62 ± 6 nM |  |  |
| 16-mer consensus (dsDNA) DNA 1: ACATGACATGACATGT DNA 2: ACATGTCATGTCATGT | 58 ± 3 nM | 60 ± 3 nM |  |  |
| PtraL operator (dsDNA) DNA 1: TGCATTACATGACATGACATGTAAT DNA 2: ATTACATGTCATGTCATGTAATGCA | 39 ± 5 nM | 23 ± 5 nM |  |  |
| Porf538 left half site (dsDNA) DNA 1: ACACGACATCA DNA 2: TGATGTCGTGT |  |  | no binding | binding result (ArtA [1]): no binding |
| Porf538 right half site (dsDNA) DNA 1: AAATGACACGT DNA 2: ACGTGTCATTT |  |  | no binding | binding result (ArtA [1]): no binding |
| Porf538 21-mer (dsDNA) DNA 1: ACACGACATGAAATGACACGT DNA 2: ACGTGTCATTTCATGTCGTGT |  |  | no binding | Kd (ArtA [3]): 58 ± 5 nM; Kd (ArtA [4]): 42 ± 7 nM; Kd (ArtA [5]): 60 ± 10 nM |
| Porf259 24-mer (dsDNA) DNA 1: TAAACATTGCATAACATGACAGGT DNA 2: ACCTGTCATGTTATGCAATGTTTA |  |  | no binding | binding result (ArtA [6]): no binding |
| Porf259 11-mer (dsDNA) DNA 1: ACATGACAGGT DNA 2: ACCTGTCATGT |  | 790 ± 34 nM | no binding |  |
